The term Km denotes the concentration of substrate that gives half-maximal velocity.

Substrate in series [1]: Nc1ncnc2c1ncn2[C@@H]1O[C@H](COP(=O)(O)OP(=O)(O)OP(=O)(O)O)[C@@H](O)[C@H]1O
Description: purified protein. Particulars: pH 7.5, 37 °C, 5 mM MgCl2.

Substrate in series [2]: [H][C@@]1(O)[C@]2([H])OP(=O)(O)OC[C@@]3([H])O[C@@]([H])(n4cnc5c(N)ncnc54)[C@]([H])(O)[C@]3([H])OP(=O)(O)OC[C@@]2([H])O[C@@]1([H])n1cnc2c(N)ncnc21
The series can be described thus: purified protein. The conditions noted are these: pH 7.5, 5 mM MgCl2.

B1: MsDisA (Mycolicibacterium smegmatis MC2 155) (protein)
chain: MAVKSGARSGRNVVHLARPTLRETLGRLAPGTPLRDGLERILRGRTGALIVLGYDDSVEAICDGGFVLDVRYAPTRLRELSKMDGAVVLSSDGSRILRANVQLVPDPSIPTDESGTRHRSAERTAIQTGYPVISVSHSMSIVTVYVAGERHVVPDSATILSRANQTIATLERYKGRLDEVSRQLSTAEIEDFVTLRDVMTVVQRLEMVRRISLEIDADVVELGTDGRQLKLQLDELVGDNETARELIVRDYHANPDPPTAAQVAATLEELDSLSDSELLDFTVLARVFGYPSTAEAQDSAMSSRGYRAMAAIPRLQFAHVDLLVRSFGSLQNLLAASADDLQSVDGIGSMWARHIREGLSLLAESTIADRLA
For the protein B1, the Km in series [1] was determined as 480 µM.

B2: MsPDE (Mycolicibacterium smegmatis MC2 155) (protein)
chain: MPVTTTDPKTGLLTGPDAQIAGARVDARGAADLLTAASSVSVICHVYPDADTIGAGLALAQVLAASGKHVEVSFATPAQLPESLQSLPGGHLLVAPEAMRRDADLVVTVDIPSINRLGALSGLAGPGREVLVIDHHASNQLFGTANYIDPSADSTTMLVAELLDAWGKPIDEKVAHCLYAGLTTDTGSFRWATARAHRLAARLVELGVDNASISRTLLDTHPFAWLPMLSRVLATARLLPDALDGRGFVYAVVPHDEWSEARPEEVESIVDIVRTTQQAEVAAVFKEIEPMHWSVSMRAKSVNLASVASAFGGGGHPHAAGYSATGSADDVVQALARALG
As for B2, the Km in series [2] stood at 370 µM.

The values above are taken from paper doi:10.1101/2021.11.20.466133v3.
